Consider 1 molecule from article PMC2606688, “High-fidelity correction of genomic uracil by human mismatch repair activities”.

In data set [1] the target is T1, MSH2 (MutSα subunit);MSH6 (MutSα subunit) (Homo sapiens;Homo sapiens, UniProt P43246;P52701 1-934;1-1360, |). Briefly: EMSA; apparent Kd; homoduplex competitor EDL365/EDL366 in reaction; no Mg2+, 1 mM EDTA; 25 mM Tris pH 7.7, 100 mM KCl, 1 mM EDTA, 1 mM DTT, 7.5% glycerol, 10 fmol labeled duplex in 30 µl, homoduplex competitor, on ice 5 min; 6% native PAGE in 0.5x. The following applies: protein: recombinant;recombinant; tags: ;; copies: 1;1; label: 5'-32P on strand 1 (EDL56); blunt, 30 bp, single U•G mismatch.

Data set [2] deals with T1, MSH2 (MutSα subunit);MSH6 (MutSα …). Briefly: competition; unlabeled N1 at 50-fold molar excess against labeled N1 (EMSA); 25 mM Tris pH 7.7, 100 mM KCl, 1 mM EDTA, 1 mM DTT, 7.5% glycerol, 10 fmol labeled duplex in 30 µl, homoduplex competitor, on ice 5 min; 6% native PAGE in 0.5x. The conditions noted are these: protein: recombinant;recombinant; tags: ;; copies: 1;1; label: 5'-32P on strand 1 (EDL56); blunt, 30 bp, single U•G mismatch. On the technique in general: In EMSA bound probe runs differently from free probe, usually more slowly.

B1: U•G duplex (EDL56/EDL364) (dsDNA)
DNA 1: GCCGAATTTCTAGAATUGAAAGCTTGCTAG
DNA 2: CTAGCAAGCTTTCGATTCTAGAAATTCGGC
modifications: deoxyuridine at position 17 of strand 1, mispaired with G
For B1, in data set [1], the Kd amounted to 70 nM. The binding signal in data set [2] is > 5 fold decrease of probe binding.
